Experimental data reported in patent US20190381086A1, “INHIBITION OF NEDDYLATION USING GLYCYL-tRNA SYNTHETASE INHIBITORS” (The Scripps Research Institute, priority 2015, published 2019).
Values belong to the binder of their own block, whether it stands above or below them.

Key:
[1] = biological target: Ubc12^N8: NEDD8-conjugated Ubc12 (C111S, stable ester linkage to His-SUMO-tagged NEDD8) (UniProt P61081); experiment: biolayer interferometry, Ubc12^N8 immobilized
[2] = biological target: Ubc12^N8: NEDD8-conjugated Ubc12 (C111S, stable ester linkage to His-SUMO-tagged NEDD8) (UniProt P61081); experiment: biolayer interferometry (Octet), 30 °C, Ubc12^N8 (100 nM) immobilized on sensor tips, GlyRS 0.25 µM; in the presence of 1.0 mM of the small molecule GlySA
[3] = biological target: Ubc12^N8: NEDD8-conjugated Ubc12 (C111S, stable ester linkage to His-SUMO-tagged NEDD8) (UniProt P61081); experiment: biolayer interferometry, Ubc12^N8 immobilized, full-length GlyRS 8.07-129 nM
[4] = biological target: Ubc12^N8: NEDD8-conjugated Ubc12 (C111S, stable ester linkage to His-SUMO-tagged NEDD8) (UniProt P61081); experiment: biolayer interferometry (Octet), 30 °C, Ubc12^N8 (100 nM) immobilized on sensor tips, GlyRS 0.25 µM; in the presence of 0.5 mM of the small molecule GlySA
[5] = biological target: Ubc12^N8: NEDD8-conjugated Ubc12 (C111S, stable ester linkage to His-SUMO-tagged NEDD8) (UniProt P61081); experiment: biolayer interferometry (Octet), 30 °C, Ubc12^N8 (100 nM) immobilized on sensor tips, GlyRS 0.25 µM; curve 'Blank' (no GlySA)

- Kd [1]: 4.32 nM
B1: ΔInsertion 1 GlyRS (F147-F224 replaced by GSGSGG) (enzyme)
chain: MDGAGAEEVLAPLRLAVRQQGDLVRKLKEDKAPQVDVDKAVAELKARKRVLEAKELALQPKDDIVDRAKMEDTLKRRFFYDQAFAIYGGVSGLYDFGPVGCALKNNIIQTWRQHFIQEEQILEIDCTMLTPEPVLKTSGHVDKFADGSGSGGNLMFKTFIGPGGNMPGYLRPETAQGIFLNFKRLLEFNQGKLPFAAAQIGNSFRNEISPRSGLIRVREFTMAEIEHFVDPSEKDHPKFQNVADLHLYLYSAKAQVSGQSARKMRLGDAVEQGVINNTVLGYFIGRIYLYLTKVGISPDKLRFRQHMENEMAHYACDCWDAESKTSYGWIEIVGCADRSCYDLSCHARATKVPLVAEKPLKEPKTVNVVQFEPSKGAIGKAYKKDAKLVMEYLAICDECYITEMEMLLNEKGEFTIETEGKTFQLTKDMINVKRFQKTLYVEEVVPNVIEPSFGLGRIMYTVFEHTFHVREGDEQRTFFSFPAVVAPFKCSVLPLSQNQEFMPFVKELSEALTRHGVSHKVDDSSGSIGRRYARTDEIGVAFGVTIDFDTVNKTPHTATLRDRDSMRQIRAEISELPSIVQDLANGNITWADVEARYPLFEGQETGKKETIEE

- Kd [2]: 22.4 nM
- Kd [3]: 3.21 nM
- Kd [4]: 7.88 nM
- Kd [5]: 2.12 nM
B2: full-length human GlyRS (enzyme)
chain: MDGAGAEEVLAPLRLAVRQQGDLVRKLKEDKAPQVDVDKAVAELKARKRVLEAKELALQPKDDIVDRAKMEDTLKRRFFYDQAFAIYGGVSGLYDFGPVGCALKNNIIQTWRQHFIQEEQILEIDCTMLTPEPVLKTSGHVDKFADFMVKDVKNGECFRADHLLKAHLQKLMSDKKCSVEKKSEMESVLAQLDNYGQQELADLFVNYNVKSPITGNDLSPPVSFNLMFKTFIGPGGNMPGYLRPETAQGIFLNFKRLLEFNQGKLPFAAAQIGNSFRNEISPRSGLIRVREFTMAEIEHFVDPSEKDHPKFQNVADLHLYLYSAKAQVSGQSARKMRLGDAVEQGVINNTVLGYFIGRIYLYLTKVGISPDKLRFRQHMENEMAHYACDCWDAESKTSYGWIEIVGCADRSCYDLSCHARATKVPLVAEKPLKEPKTVNVVQFEPSKGAIGKAYKKDAKLVMEYLAICDECYITEMEMLLNEKGEFTIETEGKTFQLTKDMINVKRFQKTLYVEEVVPNVIEPSFGLGRIMYTVFEHTFHVREGDEQRTFFSFPAVVAPFKCSVLPLSQNQEFMPFVKELSEALTRHGVSHKVDDSSGSIGRRYARTDEIGVAFGVTIDFDTVNKTPHTATLRDRDSMRQIRAEISELPSIVQDLANGNITWADVEARYPLFEGQETGKKETIEE

- Kd [1]: 27 nM
- fold decrease of binding against wild type GlyRS [1]: 9 fold
B3: ΔF84-L93 GlyRS (F84-L93 replaced by GGG) (enzyme)
chain: MDGAGAEEVLAPLRLAVRQQGDLVRKLKEDKAPQVDVDKAVAELKARKRVLEAKELALQPKDDIVDRAKMEDTLKRRFFYDQAGGGYDFGPVGCALKNNIIQTWRQHFIQEEQILEIDCTMLTPEPVLKTSGHVDKFADFMVKDVKNGECFRADHLLKAHLQKLMSDKKCSVEKKSEMESVLAQLDNYGQQELADLFVNYNVKSPITGNDLSPPVSFNLMFKTFIGPGGNMPGYLRPETAQGIFLNFKRLLEFNQGKLPFAAAQIGNSFRNEISPRSGLIRVREFTMAEIEHFVDPSEKDHPKFQNVADLHLYLYSAKAQVSGQSARKMRLGDAVEQGVINNTVLGYFIGRIYLYLTKVGISPDKLRFRQHMENEMAHYACDCWDAESKTSYGWIEIVGCADRSCYDLSCHARATKVPLVAEKPLKEPKTVNVVQFEPSKGAIGKAYKKDAKLVMEYLAICDECYITEMEMLLNEKGEFTIETEGKTFQLTKDMINVKRFQKTLYVEEVVPNVIEPSFGLGRIMYTVFEHTFHVREGDEQRTFFSFPAVVAPFKCSVLPLSQNQEFMPFVKELSEALTRHGVSHKVDDSSGSIGRRYARTDEIGVAFGVTIDFDTVNKTPHTATLRDRDSMRQIRAEISELPSIVQDLANGNITWADVEARYPLFEGQETGKKETIEE
